# Key:
# Experiment in all cases: BLI (Octet R8), avidity format: biotinylated CD33 on streptavidin sensor, Refmab #3 as analyte at 500 nM;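 further: analyte association recorded over 300 s, then dissociation followed for 900 s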
# [1] = molecular target: T1, CD33 wild type (recombinant, biotinylated) (human, UniProt P20138 18-259, biotinylated with EZ-Link Sulfo-NHS-LC-Biotin (sites not given))
# T1 construct: also called WT; CD33 wt
# [2] = molecular target: CD33 variant N20V (recombinant, biotinylated) (human, UniProt P20138 21-259, biotinylated with EZ-Link Sulfo-NHS-LC-Biotin (sites not given))
# [3] = molecular target: CD33 variant N20G (recombinant, biotinylated) (human, UniProt P20138 21-259, biotinylated with EZ-Link Sulfo-NHS-LC-Biotin (sites not given))
# [4] = molecular target: CD33 variant Y50K (recombinant, biotinylated) (human, UniProt P20138 18-259, biotinylated with EZ-Link Sulfo-NHS-LC-Biotin (sites not given))
# [5] = molecular target: CD33 variant F21H (recombinant, biotinylated) (human, UniProt P20138 22-259, biotinylated with EZ-Link Sulfo-NHS-LC-Biotin (sites not given))
# [6] = molecular target: CD33 variant F21Q (recombinant, biotinylated) (human, UniProt P20138 22-259, biotinylated with EZ-Link Sulfo-NHS-LC-Biotin (sites not given))
# [7] = molecular target: CD33 variant F21I (recombinant, biotinylated) (human, UniProt P20138 22-259, biotinylated with EZ-Link Sulfo-NHS-LC-Biotin (sites not given))
# [8] = molecular target: CD33 variant Y50R (recombinant, biotinylated) (human, UniProt P20138 18-259, biotinylated with EZ-Link Sulfo-NHS-LC-Biotin (sites not given))
# [9] = molecular target: CD33 double variant Y50H_H49H (recombinant, biotinylated) (human, UniProt P20138 18-259, biotinylated with EZ-Link Sulfo-NHS-LC-Biotin (sites not given))
# [10] = molecular target: CD33 variant F21L (recombinant, biotinylated) (human, UniProt P20138 22-259, biotinylated with EZ-Link Sulfo-NHS-LC-Biotin (sites not given))
# [11] = molecular target: CD33 variant N20E (recombinant, biotinylated) (human, UniProt P20138 21-259, biotinylated with EZ-Link Sulfo-NHS-LC-Biotin (sites not given))
# [12] = molecular target: CD33 variant N20K (recombinant, biotinylated) (human, UniProt P20138 21-259, biotinylated with EZ-Link Sulfo-NHS-LC-Biotin (sites not given))
# [13] = molecular target: CD33 variant W22R (recombinant, biotinylated) (human, UniProt P20138 18-259, biotinylated with EZ-Link Sulfo-NHS-LC-Biotin (sites not given))
# [14] = molecular target: CD33 variant W22K (recombinant, biotinylated) (human, UniProt P20138 18-259, biotinylated with EZ-Link Sulfo-NHS-LC-Biotin (sites not given))
# [15] = molecular target: CD33 variant W22D (recombinant, biotinylated) (human, UniProt P20138 18-259, biotinylated with EZ-Link Sulfo-NHS-LC-Biotin (sites not given))
# [16] = molecular target: CD33 variant Y50D (recombinant, biotinylated) (human, UniProt P20138 18-259, biotinylated with EZ-Link Sulfo-NHS-LC-Biotin (sites not given))
# [17] = molecular target: CD33 variant F21V (recombinant, biotinylated) (human, UniProt P20138 22-259, biotinylated with EZ-Link Sulfo-NHS-LC-Biotin (sites not given))
# [18] = molecular target: CD33 variant F44P (recombinant, biotinylated) (human, UniProt P20138 18-259, biotinylated with EZ-Link Sulfo-NHS-LC-Biotin (sites not given))
# [19] = molecular target: CD33 variant N20H (recombinant, biotinylated) (human, UniProt P20138 21-259, biotinylated with EZ-Link Sulfo-NHS-LC-Biotin (sites not given))
# [20] = molecular target: CD33 variant W22T (recombinant, biotinylated) (human, UniProt P20138 18-259, biotinylated with EZ-Link Sulfo-NHS-LC-Biotin (sites not given))
# [21] = molecular target: CD33 variant W22E (recombinant, biotinylated) (human, UniProt P20138 18-259, biotinylated with EZ-Link Sulfo-NHS-LC-Biotin (sites not given))
# [22] = molecular target: CD33 variant F21M (recombinant, biotinylated) (human, UniProt P20138 22-259, biotinylated with EZ-Link Sulfo-NHS-LC-Biotin (sites not given))
# [23] = molecular target: CD33 variant F21S (recombinant, biotinylated) (human, UniProt P20138 22-259, biotinylated with EZ-Link Sulfo-NHS-LC-Biotin (sites not given))
# [24] = molecular target: CD33 variant F21N (recombinant, biotinylated) (human, UniProt P20138 22-259, biotinylated with EZ-Link Sulfo-NHS-LC-Biotin (sites not given))
# Chain of CD33 variant F21N (recombinant, biotinylated) (P20138 other isoform, or with tags, fused parts or gaps F21N F21N): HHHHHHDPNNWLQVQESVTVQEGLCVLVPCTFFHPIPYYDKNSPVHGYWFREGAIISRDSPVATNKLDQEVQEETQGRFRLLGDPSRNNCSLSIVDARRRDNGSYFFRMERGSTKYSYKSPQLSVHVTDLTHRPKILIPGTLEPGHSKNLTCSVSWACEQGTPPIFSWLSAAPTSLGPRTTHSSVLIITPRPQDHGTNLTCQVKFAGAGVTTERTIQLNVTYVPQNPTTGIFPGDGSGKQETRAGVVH
# Chain of CD33 variant W22D (recombinant, biotinylated) (P20138 other isoform, or with tags, fused parts or gaps W22D W22D): as the sequence (P20138 other isoform, or with tags, fused parts or gaps F21N F21N) above, with N10F, W11D counted along it
# Chain of CD33 variant W22K (recombinant, biotinylated) (P20138 other isoform, or with tags, fused parts or gaps W22K W22K): as the sequence (P20138 other isoform, or with tags, fused parts or gaps F21N F21N) above, with N10F, W11K counted along it
# Chain of CD33 variant W22E (recombinant, biotinylated) (P20138 other isoform, or with tags, fused parts or gaps W22E W22E): as the sequence (P20138 other isoform, or with tags, fused parts or gaps F21N F21N) above, with N10F, W11E counted along it
# Chain of CD33 variant F21M (recombinant, biotinylated) (P20138 other isoform, or with tags, fused parts or gaps F21M F21M): as the sequence (P20138 other isoform, or with tags, fused parts or gaps F21N F21N) above, with N10M counted along it
# Chain of CD33 variant N20E (recombinant, biotinylated) (P20138 other isoform, or with tags, fused parts or gaps N20E N20E): as the sequence (P20138 other isoform, or with tags, fused parts or gaps F21N F21N) above, with N9E, N10F counted along it
# T1 sequence (P20138 other isoform, or with tags, fused parts or gaps): as the sequence (P20138 other isoform, or with tags, fused parts or gaps F21N F21N) above, with N10F counted along it
# Chain of CD33 double variant Y50H_H49H (recombinant, biotinylated) (P20138 other isoform, or with tags, fused parts or gaps Y50H H49H Y50H H49H): as the sequence (P20138 other isoform, or with tags, fused parts or gaps F21N F21N) above, with N10F, Y38H, Y39H counted along it
# Chain of CD33 variant Y50R (recombinant, biotinylated) (P20138 other isoform, or with tags, fused parts or gaps Y50R Y50R): as the sequence (P20138 other isoform, or with tags, fused parts or gaps F21N F21N) above, with N10F, Y39R counted along it
# Chain of CD33 variant N20H (recombinant, biotinylated) (P20138 other isoform, or with tags, fused parts or gaps N20H N20H): as the sequence (P20138 other isoform, or with tags, fused parts or gaps F21N F21N) above, with N9H, N10F counted along it
# Chain of CD33 variant F44P (recombinant, biotinylated) (P20138 other isoform, or with tags, fused parts or gaps F44P F44P): as the sequence (P20138 other isoform, or with tags, fused parts or gaps F21N F21N) above, with N10F, F33P counted along it
# Chain of CD33 variant F21L (recombinant, biotinylated) (P20138 other isoform, or with tags, fused parts or gaps F21L F21L): as the sequence (P20138 other isoform, or with tags, fused parts or gaps F21N F21N) above, with N10L counted along it
# Chain of CD33 variant F21S (recombinant, biotinylated) (P20138 other isoform, or with tags, fused parts or gaps F21S F21S): as the sequence (P20138 other isoform, or with tags, fused parts or gaps F21N F21N) above, with N10S counted along it
# Chain of CD33 variant F21Q (recombinant, biotinylated) (P20138 other isoform, or with tags, fused parts or gaps F21Q F21Q): as the sequence (P20138 other isoform, or with tags, fused parts or gaps F21N F21N) above, with N10Q counted along it
# Chain of CD33 variant F21I (recombinant, biotinylated) (P20138 other isoform, or with tags, fused parts or gaps F21I F21I): as the sequence (P20138 other isoform, or with tags, fused parts or gaps F21N F21N) above, with N10I counted along it
# Chain of CD33 variant N20G (recombinant, biotinylated) (P20138 other isoform, or with tags, fused parts or gaps N20G N20G): as the sequence (P20138 other isoform, or with tags, fused parts or gaps F21N F21N) above, with N9G, N10F counted along it
# Chain of CD33 variant N20V (recombinant, biotinylated) (P20138 other isoform, or with tags, fused parts or gaps N20V N20V): as the sequence (P20138 other isoform, or with tags, fused parts or gaps F21N F21N) above, with N9V, N10F counted along it
# Chain of CD33 variant Y50D (recombinant, biotinylated) (P20138 other isoform, or with tags, fused parts or gaps Y50D Y50D): as the sequence (P20138 other isoform, or with tags, fused parts or gaps F21N F21N) above, with N10F, Y39D counted along it
# Chain of CD33 variant W22T (recombinant, biotinylated) (P20138 other isoform, or with tags, fused parts or gaps W22T W22T): as the sequence (P20138 other isoform, or with tags, fused parts or gaps F21N F21N) above, with N10F, W11T counted along it
binder,measurement,setting,value
"Refmab #3 (antibody, human IgG1, V domains shown) VH: QVQLVQSGAEVKKPGSSVKVSCKASGYTFTDYNMHWVRQAPGQGLEWIGYIYPYNGGTGYNQKFKSKATITADESTNTAYMELSSLRSEDTAVYYCARGRPAMDYWGQGTLVTVSS VL: DIQMTQSPSSLSASVGDRVTITCRASESVDNYGISFMNWFQQKPGKAPKLLIYAASNQGSGVPSRFSGSGSGTDFTLTISSLQPDDFATYYCQQSKEVPWTFGQGTKVEIK",% WT binding,[1],100 % WT binding
same,% WT binding,[2],6.62 % WT binding
same,% WT binding,[3],0 % WT binding
same,% WT binding,[4],73.9 % WT binding
same,% WT binding,[5],0 % WT binding
same,% WT binding,[6],0 % WT binding
same,% WT binding,[7],0 % WT binding
same,% WT binding,[8],93.1 % WT binding
same,% WT binding,[9],58.5 % WT binding
same,% WT binding,[10],0 % WT binding
same,% WT binding,[11],0 % WT binding
same,% WT binding,[12],0 % WT binding
same,% WT binding,[13],0.86 % WT binding
same,% WT binding,[14],0 % WT binding
same,% WT binding,[15],6.42 % WT binding
same,% WT binding,[16],128 % WT binding
same,% WT binding,[17],0 % WT binding
same,% WT binding,[18],0 % WT binding
same,% WT binding,[19],5.39 % WT binding
same,% WT binding,[20],5.25 % WT binding
same,% WT binding,[21],23.5 % WT binding
same,% WT binding,[22],0 % WT binding
same,% WT binding,[23],0 % WT binding
same,% WT binding,[24],0 % WT binding

# From patent US20260242735A1 (UNIVERSIT T BASEL, published 2026)
